# B1: ALM (A5-ML3.9) bispecific scFv (bispecific antibody)
# scFv: AMAQVQLVQSGGGLVKPGGSLRLSCAASGFSFNTYDMNWVRQAPGKGLEWVSSISSSSSYIYYADSVKGRFTISRDNAKNSLYLQMNSLRAEDTAVYYCARDGVATTPFDYWGQGTLVTVSSGGGGSGGGGSGGGGSQSVLTQPPSVSGAPGQRVTISCTGSSSNIGAGYDVHWYQQLPGTAPKLLIYGNSNRPSGVPDRFSGSKSGTSASLAITGLQAEDEADYYCQSYDSSLSALFGGGTKLTVLGNSGAGTSGSGASGEGSGSKLQVQLVQSGAEVKKPGESLKISCKGSGYSFTSYWIAWVRQMPGKGLEYMGLIYPGDSDTKYSPSFQGQVTISVDKSVSTAYLQWSSLKPSDSAVYFCARHDVGYCSSSNCAKWPEYFQHWGQGTLVTVSSGGGGSGGGGSGGGGSQSVLTQPPSVSAAPGQKVTISCSGSSSNIGNNYVSWYQQLPGTAPKLLIYDHTNRPAGVPDRFSGSKSGTSASLAISGFRSEDEADYYCASWDYTLSGWVFGGGTKLTVLGLEHHHHHH
# notes: Expressed in E. coli TG1 from pUC/ALM and purified by IMAC and size exclusion; also called A5/Linker/ML3.9 bs-scFv; ALM proteins
# Key:
# [1] = target: T1, HER2/neu extracellular domain (UniProt P04626 23-652, limits assumed); assay: surface plasmon resonance (BIAcore), HER2/neu extracellular domain on the chip, ALM injected; concentrations not given
# T1 construct: extracellular domain; also called ErbB2
# [2] = target: T2, HER3 extracellular domain (UniProt P21860 20-643, limits assumed); assay: surface plasmon resonance (BIAcore), HER3 extracellular domain on the chip, ALM injected; concentrations not given
# T2 construct: extracellular domain; also called ErbB3
# T2 sequence (P21860 20-643 limits assumed): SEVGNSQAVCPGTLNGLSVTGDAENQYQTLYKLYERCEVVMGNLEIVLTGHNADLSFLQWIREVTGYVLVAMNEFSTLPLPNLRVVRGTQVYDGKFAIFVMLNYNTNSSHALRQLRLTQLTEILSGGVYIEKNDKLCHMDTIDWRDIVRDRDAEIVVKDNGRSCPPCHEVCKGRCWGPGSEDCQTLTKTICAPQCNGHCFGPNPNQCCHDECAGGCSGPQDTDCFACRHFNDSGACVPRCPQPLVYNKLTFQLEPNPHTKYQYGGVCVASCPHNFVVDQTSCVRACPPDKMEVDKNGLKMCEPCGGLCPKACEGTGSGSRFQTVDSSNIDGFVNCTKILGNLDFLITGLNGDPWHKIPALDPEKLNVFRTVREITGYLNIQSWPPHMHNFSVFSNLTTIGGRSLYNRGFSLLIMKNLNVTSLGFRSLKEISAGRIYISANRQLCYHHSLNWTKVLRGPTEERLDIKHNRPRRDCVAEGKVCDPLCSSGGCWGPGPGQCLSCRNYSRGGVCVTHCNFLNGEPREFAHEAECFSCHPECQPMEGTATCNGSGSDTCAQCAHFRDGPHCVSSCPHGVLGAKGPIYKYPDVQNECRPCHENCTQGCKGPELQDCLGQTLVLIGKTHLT
binder,measurement,setting,value
B1,binding result,[1],binds
same,binding result,[2],binds

# Reference: patent publication US20100196265A1 (University of California, published 2010)
